Assay results taken from paper doi:10.1101/2022.12.01.518327 (bioRxiv, 2022).
Changes are numbered by the printed parent chain. Names may count otherwise. One block for each binder: values may come before it.

Tests used:
[1] = molecular target: T1, mouse LEP-R extracellular domain (mLEP-RECD) (mouse, UniProt P48356 22-839); assay: SEC-MALLS
T1 sequence (looked up): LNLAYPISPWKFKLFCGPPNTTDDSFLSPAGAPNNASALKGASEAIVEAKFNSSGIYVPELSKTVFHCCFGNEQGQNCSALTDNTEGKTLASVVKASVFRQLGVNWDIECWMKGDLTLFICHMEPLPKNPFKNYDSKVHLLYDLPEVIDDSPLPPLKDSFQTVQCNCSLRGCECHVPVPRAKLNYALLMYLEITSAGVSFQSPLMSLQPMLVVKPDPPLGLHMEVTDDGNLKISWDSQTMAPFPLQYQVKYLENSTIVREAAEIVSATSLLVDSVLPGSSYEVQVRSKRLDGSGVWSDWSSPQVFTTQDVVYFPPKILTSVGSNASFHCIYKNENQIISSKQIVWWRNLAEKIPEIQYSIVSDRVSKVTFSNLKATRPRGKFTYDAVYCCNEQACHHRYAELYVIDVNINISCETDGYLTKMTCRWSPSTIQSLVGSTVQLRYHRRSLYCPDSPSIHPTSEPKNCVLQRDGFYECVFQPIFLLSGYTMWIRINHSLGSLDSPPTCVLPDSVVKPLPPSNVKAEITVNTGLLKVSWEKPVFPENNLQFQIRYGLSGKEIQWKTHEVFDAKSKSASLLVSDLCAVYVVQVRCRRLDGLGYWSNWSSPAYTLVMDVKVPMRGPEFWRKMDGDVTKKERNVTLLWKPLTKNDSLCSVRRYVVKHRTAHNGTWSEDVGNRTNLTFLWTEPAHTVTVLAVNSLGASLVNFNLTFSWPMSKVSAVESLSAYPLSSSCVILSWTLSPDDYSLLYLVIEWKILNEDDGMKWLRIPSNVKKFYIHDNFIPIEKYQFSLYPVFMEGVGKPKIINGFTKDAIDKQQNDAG

[2] = molecular target: T1, mouse LEP-R extracellular domain …; assay: SEC-MALLS + AUC
[3] = molecular target: T2, human LEP-R extracellular domain (hLEP-RECD), glycosylated (human, UniProt P48357 22-839); assay: SEC-MALLS
T2 sequence (looked up): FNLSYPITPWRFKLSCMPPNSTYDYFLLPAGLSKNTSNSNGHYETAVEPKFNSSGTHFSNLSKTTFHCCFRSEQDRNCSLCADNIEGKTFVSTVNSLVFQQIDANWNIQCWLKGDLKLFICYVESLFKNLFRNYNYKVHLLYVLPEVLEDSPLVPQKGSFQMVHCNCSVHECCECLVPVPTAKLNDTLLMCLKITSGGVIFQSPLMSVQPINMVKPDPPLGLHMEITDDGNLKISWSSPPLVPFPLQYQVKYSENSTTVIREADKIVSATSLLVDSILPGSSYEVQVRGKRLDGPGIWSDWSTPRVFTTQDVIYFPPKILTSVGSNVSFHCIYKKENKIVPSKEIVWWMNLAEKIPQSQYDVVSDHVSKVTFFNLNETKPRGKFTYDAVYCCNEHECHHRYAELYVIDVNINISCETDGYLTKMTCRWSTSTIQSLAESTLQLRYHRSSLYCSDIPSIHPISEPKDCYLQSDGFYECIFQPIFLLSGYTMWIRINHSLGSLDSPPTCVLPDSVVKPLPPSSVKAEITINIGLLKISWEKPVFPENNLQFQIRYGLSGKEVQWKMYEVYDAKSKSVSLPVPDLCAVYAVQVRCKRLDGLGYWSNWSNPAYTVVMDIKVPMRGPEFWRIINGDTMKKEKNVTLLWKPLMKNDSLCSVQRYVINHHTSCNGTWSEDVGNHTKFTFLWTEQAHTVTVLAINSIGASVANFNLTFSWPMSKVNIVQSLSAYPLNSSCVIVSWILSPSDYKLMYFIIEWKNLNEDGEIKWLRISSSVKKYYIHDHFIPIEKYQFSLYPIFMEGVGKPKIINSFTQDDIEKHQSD

[4] = molecular target: T3, mouse LEP-R Ig-CRH2 fragment, residues 328-633, C602S (mouse, UniProt P48356 328-633, C602S); assay: SEC-MALLS
T3 sequence (looked up): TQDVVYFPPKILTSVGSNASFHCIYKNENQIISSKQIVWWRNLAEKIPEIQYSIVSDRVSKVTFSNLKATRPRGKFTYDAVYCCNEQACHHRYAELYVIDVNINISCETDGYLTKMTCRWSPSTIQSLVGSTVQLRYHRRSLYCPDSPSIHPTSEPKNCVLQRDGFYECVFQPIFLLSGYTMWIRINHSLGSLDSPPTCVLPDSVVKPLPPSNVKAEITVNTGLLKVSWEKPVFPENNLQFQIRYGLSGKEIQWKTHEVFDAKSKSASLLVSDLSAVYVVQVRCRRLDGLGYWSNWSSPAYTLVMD

[5] = molecular target: T1, mouse LEP-R extracellular domain …; assay: cryo-EM structure
[6] = molecular target: T3, mouse LEP-R Ig-CRH2 fragment, residues …; assay: crystal structure
[7] = molecular target: T1, mouse LEP-R extracellular domain …; assay: BLI

B1: murinized human Leptin I85V/M89L/G132D/G139L (ligand, UniProt P41159 22-167, looked up)
chain: VPIQKVQDDTKTLIKTIVTRINDISHTQSVSSKQKVTGLDFIPGLHPILTLSKMDQTLAVYQQVLTSLPSRNVIQISNDLENLRDLLHVLAFSKSCHLPWASGLETLDSLDGVLEASLYSTEVVALSRLQGSLQDMLWQLDLSPGC
- binding result [1]: binds

B2: mouse Leptin (mLeptin), wild type, as used in SEC-MALLS, AUC, BLI (in solution) and on cells (ligand, UniProt P41160 22-167, looked up)
chain: VPIQKVQDDTKTLIKTIVTRINDISHTQSVSAKQRVTGLDFIPGLHPILSLSKMDQTLAVYQQVLTSLPSQNVLQIANDLENLRDLLHLLAFSKSCSLPQTSGLQKPESLDGVLEASLYSTEVVALSRLQGSLQDILQQLDVSPEC
- binding result [2]: binds
- binding result [3]: binds
- binding result [4]: binds

B3: mouse Leptin refolded from E. coli, N-terminal His-tag removed with TEV protease (ligand, UniProt P41160 22-167, looked up)
chain: B2 chain
- binding result [5]: binds

B4: tag-less mouse Leptin refolded from E. coli inclusion bodies (ligand, UniProt P41160 22-167, looked up)
chain: B2 chain
- binding result [6]: binds

B7: Leptin a1 antagonist (141ST142/AA), as used with mLEP-RECD (ligand, UniProt P41160 22-167, looked up)
chain: B2 chain with S120A, T121A
- stoichiometry N [2]: 1

More lines, now with the values ahead:

- binding result [7]: binds
B5: in vitro biotinylated mouse Leptin (ligand, UniProt P41160 22-167, looked up)
chain: B2 chain
modifications: biotin (NHS-PEG4-biotin, in vitro)

- stoichiometry N [2]: 1
B6: mouse Leptin a2 antagonist (60LDFI63/AAAA) (ligand, UniProt P41160 22-167, looked up)
chain: B2 chain with L39A, D40A, F41A, I42A
